Laboratory results published in patent publication US20190185531A1 (published 2019).

T1: human Bfl-1 (c-myc-tagged) (human, UniProt Q16548 1-151)
T1 chain: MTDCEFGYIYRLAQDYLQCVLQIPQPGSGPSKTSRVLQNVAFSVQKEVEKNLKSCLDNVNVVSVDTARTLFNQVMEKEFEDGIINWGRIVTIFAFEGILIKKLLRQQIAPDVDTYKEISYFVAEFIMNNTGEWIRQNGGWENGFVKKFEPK

T2: Bcl-w (c-myc-tagged) (human, UniProt Q92843 1-164)
T2 chain: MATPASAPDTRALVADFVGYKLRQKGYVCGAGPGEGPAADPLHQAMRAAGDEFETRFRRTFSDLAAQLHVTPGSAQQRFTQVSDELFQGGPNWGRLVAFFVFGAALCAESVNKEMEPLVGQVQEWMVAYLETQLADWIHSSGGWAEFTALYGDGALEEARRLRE

T3: human Mcl-1 (c-myc-tagged) (human, UniProt Q07820 172-327)
T3 chain: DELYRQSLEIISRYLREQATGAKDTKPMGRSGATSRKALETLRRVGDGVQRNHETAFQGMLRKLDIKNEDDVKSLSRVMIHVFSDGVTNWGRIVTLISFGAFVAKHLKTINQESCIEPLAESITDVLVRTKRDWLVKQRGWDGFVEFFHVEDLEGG


Experiments:
[1] = target: T1, human Bfl-1 (c-myc-tagged); assay: fluorescence anisotropy competition
[2] = target: Bcl-2 (c-myc-tagged) (human, UniProt P10415 1-217); assay: fluorescence anisotropy competition
Bcl-2 (c-myc-tagged), sequence (P10415 1-217): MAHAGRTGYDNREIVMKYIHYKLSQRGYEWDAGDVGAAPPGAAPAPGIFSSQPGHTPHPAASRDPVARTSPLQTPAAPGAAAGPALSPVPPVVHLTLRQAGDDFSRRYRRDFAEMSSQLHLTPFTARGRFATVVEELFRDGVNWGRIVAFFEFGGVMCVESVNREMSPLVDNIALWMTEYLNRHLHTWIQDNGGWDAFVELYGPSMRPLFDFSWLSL

[3] = target: Bcl-xL (c-myc-tagged) (human, UniProt Q07817 1-209); assay: fluorescence anisotropy competition
Bcl-xL (c-myc-tagged), sequence (Q07817 1-209): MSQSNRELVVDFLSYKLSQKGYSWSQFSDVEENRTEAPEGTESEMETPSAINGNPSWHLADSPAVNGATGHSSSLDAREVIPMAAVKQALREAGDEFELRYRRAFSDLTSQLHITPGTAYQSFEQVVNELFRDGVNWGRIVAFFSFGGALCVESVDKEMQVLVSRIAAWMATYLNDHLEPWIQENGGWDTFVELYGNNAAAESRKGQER

[4] = target: T2, Bcl-w (c-myc-tagged); assay: fluorescence anisotropy competition
[5] = target: T3, human Mcl-1 (c-myc-tagged); assay: fluorescence anisotropy competition
[6] = target: T1, human Bfl-1 (c-myc-tagged); assay: fluorescence anisotropy competition
[7] = target: T1, human Bfl-1 (c-myc-tagged); assay: anisotropy

Row | Binder | Ki [1] [nM] | Ki [2] [nM] | Ki [3] [nM] | Ki [4] [nM] | Ki [5] [nM] | Ki [6] [nM] | Ki [7] [nM]
1 | Ac-QWAREIGAGLRRAADDVNAQVER-NH2 [PUMA/FS2 chimeric peptide: PUMA with smaller residues at positions G2, D3, A4 and E4] | – | – | – | – | – | 600 | –
2 | Ac-QWAREIGAQLRRMADDLNAQYER-NH2 [Puma BH3 peptide (23 residues)] | 5.1 | – | – | 6 | 2.7 | 4.8 | –
3 | Ac-QWVREIAAGLRLAADNVNAQLER-NH2 [FS1] | – | 6940 | 2720 | 8880 | > 5000 | – | 16.4
4 | Ac-QWVREIAAGLRRAADDVNAQVER-NH2 [FS2] | 24.8 | 2450 | 7340 | 7210 | 2580 | 21 | –

Other lines, results leading:

Row | Ki [1] [nM] | Ki [2] [nM] | Ki [3] [nM] | Ki [4] [nM] | Ki [5] [nM] | Ki [6] [nM] | Ki [7] [nM] | Binder
5 | 2.1 | 2360 | 105 | 828 | 711 | – | – | Ac-QWIREIAAGLRRFADILNAQVER-NH2 [FS3]
6 | – | – | – | – | – | 2.1 | – | Ac-QWVREIAAQLRRMADDLNAQYER-NH2 [PUMA/FS2 chimeric peptide: PUMA with larger residues at positions A2 and E2]
